The values below come from CN117545770A (HOFFMANN LA ROCHE, dated 2024).

To fix the notation:
B1: HLA-G-0090-VL-S33D (antibody, IgG1, V domains shown)
VH: QVQLQQSGPGLLKPSQTLSLTCAISGDSVSSNRAAWNWIRQSPSRGLEWLGRTYYRSKWYNDYAVSVQGRITLIPDTSKNQFSLRLNSVTPEDTAVYYCASVRAVAPFDYWGQGVLVTVSS
VL: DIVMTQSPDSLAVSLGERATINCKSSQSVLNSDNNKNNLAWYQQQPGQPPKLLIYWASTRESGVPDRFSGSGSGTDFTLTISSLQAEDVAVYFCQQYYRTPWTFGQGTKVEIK
notes: IgG1 format, HEK293F; also called HLA-G-0090--S33D
B2: HLA-G-0090-VL-S33P (antibody, IgG1, V domains shown)
VH: B1 VH
VL: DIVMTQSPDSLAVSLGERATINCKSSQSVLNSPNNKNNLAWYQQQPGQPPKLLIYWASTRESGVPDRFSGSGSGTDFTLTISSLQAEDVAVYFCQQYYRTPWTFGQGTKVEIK
notes: IgG1 format, HEK293F; also called HLA-G-0090-S33P
B3: HLA-G-0090 (antibody, IgG1, V domains shown)
VH: B1 VH
VL: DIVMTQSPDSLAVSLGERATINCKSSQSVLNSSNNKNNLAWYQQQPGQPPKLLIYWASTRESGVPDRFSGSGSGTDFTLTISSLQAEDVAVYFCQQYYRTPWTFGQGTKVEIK
modifications: N-glycosylation at the NSS motif of CDR-L1 (LC positions 31-33; Fab glycosylation found by mass spectrometry); N-glycosylation in CDR-L1 (NSS motif, LC 31-33) is on the light chain, not on this chain
notes: also called 亲代抗体HLA-G-0090
B4: HLA-G-0090-VL-S33A (antibody, V domains shown)
VH: B1 VH
VL: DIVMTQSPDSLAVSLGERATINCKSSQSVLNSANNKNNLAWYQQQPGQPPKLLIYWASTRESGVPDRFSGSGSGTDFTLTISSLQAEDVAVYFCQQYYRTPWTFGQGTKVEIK
notes: also called HLA-G-0090-S33A
B5: HLA-G-0090-VL-S32P (antibody, V domains shown)
VH: B1 VH
VL: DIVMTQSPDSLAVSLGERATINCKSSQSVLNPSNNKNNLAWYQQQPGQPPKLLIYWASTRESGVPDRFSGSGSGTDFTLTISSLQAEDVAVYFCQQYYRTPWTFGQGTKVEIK
notes: also called HLA-G-0090-S32P

The target in one experiment is T1, 重组单链HLA-G单体/人HLA-Gβ2M MHC I类复合物 (SEQ ID NO:39) (human).
T1 construct: also called wt-HLA-G复合物; wt-HLA-G抗原
Put plainly: SPR multi-cycle kinetics.
As to B1, the “fold decrease of binding affinity against HLA-G-0090” value was 5 fold.

Consider B2, for which the “fold decrease of binding affinity against HLA-G-0090” value came out at 2 fold.

The target of the next experiment is T1, 重组单链HLA-G单体/人HLA-Gβ2M MHC I类复合物 (SEQ ID …). Put plainly: SPR Biacore T200, 25 °C, multi-cycle kinetics; antibody captured by anti-hFc on CM3 chip, HLA-G complex as analyte; 1:1 Langmuir. In general terms: Surface plasmon resonance follows binding to a sensor surface in real time, without labels.
The molecule B3 had a t1/2 of 6.5 min.

Take B1: the t1/2 was 1.73 min.

Take B4: the t1/2 was 7.76 min.

B2 had a t1/2 of 3.13 min.

For B5, the t1/2 is 7.34 min.
